Values quoted from earlier work in US20040209344A1, “Crystal structure of angiotensin-converting enzyme-related carboxypeptidase” (priority 2002, published 2004).
“Also recorded” adds a separate entry of the source. Like-named read-outs stand apart in the source and are kept apart here.

Assays:
[1] = molecular target: T1, ACE2 (Homo sapiens, UniProt Q9BYF1)
Target sequence in this assay (Q9BYF1 18-805): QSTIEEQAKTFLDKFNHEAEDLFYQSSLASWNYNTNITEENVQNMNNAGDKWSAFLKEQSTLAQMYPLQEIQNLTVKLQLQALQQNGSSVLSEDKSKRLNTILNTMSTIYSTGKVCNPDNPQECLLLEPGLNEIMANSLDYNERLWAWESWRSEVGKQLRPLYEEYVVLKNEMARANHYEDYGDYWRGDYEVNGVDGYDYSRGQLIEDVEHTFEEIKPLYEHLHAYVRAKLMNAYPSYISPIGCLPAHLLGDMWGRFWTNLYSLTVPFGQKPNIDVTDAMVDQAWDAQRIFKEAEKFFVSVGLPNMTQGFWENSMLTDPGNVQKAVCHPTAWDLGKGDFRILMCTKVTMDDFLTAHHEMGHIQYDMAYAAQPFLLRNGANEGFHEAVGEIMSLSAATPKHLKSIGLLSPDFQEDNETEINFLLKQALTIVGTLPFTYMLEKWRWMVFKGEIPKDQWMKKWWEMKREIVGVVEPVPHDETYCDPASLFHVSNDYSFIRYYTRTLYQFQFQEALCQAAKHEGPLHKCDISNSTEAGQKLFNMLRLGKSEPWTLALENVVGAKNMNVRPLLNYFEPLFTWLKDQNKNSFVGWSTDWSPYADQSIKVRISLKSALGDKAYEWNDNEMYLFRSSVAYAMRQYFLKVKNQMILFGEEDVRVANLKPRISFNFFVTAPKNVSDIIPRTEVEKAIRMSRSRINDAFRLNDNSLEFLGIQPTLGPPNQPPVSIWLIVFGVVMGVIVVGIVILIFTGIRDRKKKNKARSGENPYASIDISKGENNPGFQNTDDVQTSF

[2] = molecular target: somatic ACE D991 to E mutant (Homo sapiens, UniProt P12821, D1020E); details: mutation of D991 to E in somatic ACE; Williams et al.
Sequence of somatic ACE D991 to E mutant (P12821 30-1306 D1020E): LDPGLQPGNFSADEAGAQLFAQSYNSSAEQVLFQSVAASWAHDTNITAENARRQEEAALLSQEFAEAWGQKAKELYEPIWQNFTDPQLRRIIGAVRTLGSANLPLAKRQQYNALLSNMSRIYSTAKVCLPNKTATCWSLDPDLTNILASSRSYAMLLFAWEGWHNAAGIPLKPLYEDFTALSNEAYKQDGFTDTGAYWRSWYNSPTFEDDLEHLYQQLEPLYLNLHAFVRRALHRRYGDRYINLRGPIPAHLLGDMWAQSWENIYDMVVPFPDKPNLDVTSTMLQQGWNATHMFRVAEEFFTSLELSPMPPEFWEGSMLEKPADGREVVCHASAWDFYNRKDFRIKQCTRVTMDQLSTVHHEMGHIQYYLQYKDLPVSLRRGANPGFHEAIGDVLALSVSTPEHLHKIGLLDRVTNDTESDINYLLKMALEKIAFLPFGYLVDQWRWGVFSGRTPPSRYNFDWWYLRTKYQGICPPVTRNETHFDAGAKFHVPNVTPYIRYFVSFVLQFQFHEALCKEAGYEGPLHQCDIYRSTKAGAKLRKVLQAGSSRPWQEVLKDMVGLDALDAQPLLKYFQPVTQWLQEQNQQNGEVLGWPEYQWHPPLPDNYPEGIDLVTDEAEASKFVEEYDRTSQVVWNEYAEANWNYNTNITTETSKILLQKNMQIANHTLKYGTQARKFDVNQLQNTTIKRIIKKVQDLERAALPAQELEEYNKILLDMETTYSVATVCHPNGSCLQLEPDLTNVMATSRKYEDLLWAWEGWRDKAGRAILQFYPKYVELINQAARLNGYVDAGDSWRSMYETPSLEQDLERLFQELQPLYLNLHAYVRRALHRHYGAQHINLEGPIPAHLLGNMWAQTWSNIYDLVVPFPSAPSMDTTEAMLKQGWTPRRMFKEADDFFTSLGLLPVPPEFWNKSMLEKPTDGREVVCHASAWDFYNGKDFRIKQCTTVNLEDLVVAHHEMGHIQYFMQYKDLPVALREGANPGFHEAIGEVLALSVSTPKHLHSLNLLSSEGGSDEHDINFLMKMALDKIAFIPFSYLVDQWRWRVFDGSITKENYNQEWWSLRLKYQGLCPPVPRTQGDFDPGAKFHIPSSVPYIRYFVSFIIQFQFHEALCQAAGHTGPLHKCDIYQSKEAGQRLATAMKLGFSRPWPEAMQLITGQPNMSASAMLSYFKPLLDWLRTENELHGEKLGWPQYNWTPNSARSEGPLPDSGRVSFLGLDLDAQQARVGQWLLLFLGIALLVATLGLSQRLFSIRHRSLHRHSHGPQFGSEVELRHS

[3] = molecular target: T1, ACE2; set-up: made in house; host or cells: SF9 insect cells, baculovirus (pBac Pak9 vector), secreted into the culture supernatant; details: Tipnis et al.
Target sequence in this assay (Q9BYF1 19-740): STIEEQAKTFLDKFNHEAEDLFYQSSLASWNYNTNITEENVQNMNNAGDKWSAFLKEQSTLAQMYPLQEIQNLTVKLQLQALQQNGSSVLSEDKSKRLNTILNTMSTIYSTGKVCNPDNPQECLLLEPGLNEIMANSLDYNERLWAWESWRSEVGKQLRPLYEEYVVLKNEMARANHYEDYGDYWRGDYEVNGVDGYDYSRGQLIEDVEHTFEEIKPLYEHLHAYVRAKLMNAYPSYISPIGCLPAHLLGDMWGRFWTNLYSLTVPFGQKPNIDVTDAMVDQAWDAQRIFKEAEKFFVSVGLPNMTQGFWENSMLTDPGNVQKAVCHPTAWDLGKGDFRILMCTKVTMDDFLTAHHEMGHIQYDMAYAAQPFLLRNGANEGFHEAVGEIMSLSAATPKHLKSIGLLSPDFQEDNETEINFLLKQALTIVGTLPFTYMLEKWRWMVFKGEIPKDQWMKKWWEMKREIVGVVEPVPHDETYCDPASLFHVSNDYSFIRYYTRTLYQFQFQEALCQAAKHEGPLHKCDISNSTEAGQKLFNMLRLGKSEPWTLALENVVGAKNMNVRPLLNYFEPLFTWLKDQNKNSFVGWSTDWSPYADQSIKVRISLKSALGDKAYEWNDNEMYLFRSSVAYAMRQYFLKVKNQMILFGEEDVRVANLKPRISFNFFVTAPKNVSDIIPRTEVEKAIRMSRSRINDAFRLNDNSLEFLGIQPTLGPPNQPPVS

Row | Compound | activity as peptide substrate for ACE2 ([1]; Vickers et al.) | other results
1 | Angiotensin 1-5: peptide DRVYI; SEQ ID NO: 10 | inactive | –
2 | Dynorphin A 1-13 | best in vitro peptide substrates | –
3 | des-Arg^9 bradykinin | best in vitro peptide substrates | –
4 | Met-enkephalin: peptide YGGFM; SEQ ID NO: 9 | inactive | –
5 | C[C@H](N[C@@H](CCc1ccccc1)C(=O)O)C(=O)N1[C@H](C(=O)O)C[C@H]2CCCC[C@@H]21 [trandolaprilat] | – | decrease in affinity for the inhibitor [2]: about 8 fold
6 | C[C@H](CS)C(=O)N1CCC[C@H]1C(=O)O [captopril] | – | inhibition of ACE2 by ACE inhibitors [3]: did not inhibit; also recorded: not active
7 | Angiotensin 1-9: peptide DRVYIHPFH; SEQ ID NO: 3 | inactive | –
8 | Leu-enkephalin: peptide YGGFL; SEQ ID NO: 8 | inactive | –
9 | Apelin 13 | – | activity as peptide substrate for ACE2 [1]: best in vitro peptide substrates
10 | Angiotensin II: vasoconstrictor peptide DRVYIHPF; SEQ ID NO: 2 | best in vitro peptide substrates | –
